This note sets out measurements from publication PMC8755798 (Nature Communications, 2022).

Usually stoichiometry N stands for the number of molecules, sites or subunits per partner or assembly.

This series concerns the molecule itself. Briefly: cryo-EM structure.

B1: mycobacterial proteasome ATPase (Mpa), Mycobacterium tuberculosis, wild type (enzyme)
chain: MGESERSEAFGIPRDSPLSSGDAAELEQLRREAAVLREQLENAVGSHAPTRSARDIHQLEARIDSLAARNSKLMETLKEARQQLLALREEVDRLGQPPSGYGVLLATHDDDTVDVFTSGRKMRLTCSPNIDAASLKKGQTVRLNEALTVVEAGTFEAVGEISTLREILADGHRALVVGHADEERVVWLADPLIAEDLPDGLPEALNDDTRPRKLRPGDSLLVDTKAGYAFERIPKAEVEDLVLEEVPDVSYADIGGLSRQIEQIRDAVELPFLHKELYREYSLRPPKGVLLYGPPGCGKTLIAKAVANSLAKKMAEVRGDDAHEAKSYFLNIKGPELLNKFVGETERHIRLIFQRAREKASEGTPVIVFFDEMDSIFRTRGTGVSSDVETTVVPQLLSEIDGVEGLENVIVIGASNREDMIDPAILRPGRLDVKIKIERPDAEAAQDIYSKYLTEFLPVHADDLAEFDGDRSACIKAMIEKVVDRMYAEIDDNRFLEVTYANGDKEVMYFKDFNSGAMIQNVVDRAKKNAIKSVLETGQPGLRIQHLLDSIVDEFAENEDLPNTTNPDDWARISGKKGERIVYIRTLVTGKSSSASRAIDTESNLGQYL
As to B1, the “stoichiometry N” value stood at 6.
